# Reference: patent US20230151104A1 (REMD BIOTHERAPEUTICS, published 2023)
# B1: murine mAb 201D10A12C1 ("A15") (antibody, V domains shown)
# VH: EVQLQQSGPVLVRPGASVKMSCKASGYAFTDFHLNWVKQSHGKSLEWIGVINPYNGGTNYNQKFKDKATLTVDKSSSTAYMELNRLTSEDSAVYYCARYYASRYGYAMDYWGQGTSVTVSS
# VL: DIVMTQAAPSVPVTPGESVSISCRSSKSLLHSNGNTYLYWFLQRPGQSPQLLIYRMSNLASGVPDRFSGSGSGTAFTLRISRVEAEDVGIYYCMQHVEYPLTFGAGTKLELK
# B2: murine mAb 201D10E9F2 ("A17") (antibody, V domains shown)
# VH: B1 VH
# VL: B1 VL
# B3: murine mAb 132F3F3H11 ("A8") (antibody, V domains shown)
# VH: DVQLVESGGGLVQPGGSRKLSCAASGFTFSSSGMHWVRQAPEKGLEWVAYISSGSSSIYYADTVKGRFTISRDNPKNTLFLQMTSLRSEDTAMYYCARPYYYGSIAMDYWGQGTSVTVSS
# VL: DIKMTQSPSSMYASLGERVTITCKASQDINSYLSWFQQKPGKSPKTLIYRANRLVDGVPSRFSGSGSGQDYSLTISSLEYEDMGIYYCLQYDEFPFTFGSGTKLEIK
# Molecular target: tagged CXCR4 receptors stably expressed on recombinant CHO cells (human, UniProt P61072 1-352 (Pan troglodytes entry))
# Sequence (P61072 other isoform, or with tags, fused parts or gaps): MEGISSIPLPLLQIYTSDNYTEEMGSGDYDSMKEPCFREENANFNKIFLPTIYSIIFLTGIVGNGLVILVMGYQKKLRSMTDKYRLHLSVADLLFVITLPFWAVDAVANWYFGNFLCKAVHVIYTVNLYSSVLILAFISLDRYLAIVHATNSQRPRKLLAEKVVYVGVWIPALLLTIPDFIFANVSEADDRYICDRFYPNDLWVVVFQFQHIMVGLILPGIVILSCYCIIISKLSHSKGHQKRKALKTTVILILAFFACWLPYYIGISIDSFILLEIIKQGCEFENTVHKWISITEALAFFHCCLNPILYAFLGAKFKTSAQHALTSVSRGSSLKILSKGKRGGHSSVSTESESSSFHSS
# Test: cell-based or functional assay
row,Binder,"HuCXCR4 Binding IC50 (nM) (CXCR4 cAMP functional assay, antagonist mode against 5.0 nM SDF-1)"
1,B1,1.18 nM
2,B2,1.48 nM
3,B3,0.381 nM
